The source of these data is article PMC6360386 (2018).

B1: Flag and GFP-fused PKN3 WT (mouse) [mouse] / p130Cas, endogenous in MDA-MB-231 cells [human (endogenous in MDA-MB-231)] (parent complex)
chain 1: MEHRKPGTGQRAPKDEKEMVRRAIQKELKIKEGMENMRRVATDRRHLGHVQQLLRASNRRLEQLHGELRELHAQVLLPASAEPVTSEPQPRAEQSRARLSEALHRQLQVELKVKQGAENMIHTCASGTPKERKLLAAAQQMLKDSQLKVALLRMKISSLESSGSPEPGPDLLAEELQHRLRVEAAVAAGAKNVVKLLGGQRMQDRKALAEAQAQLQESSQKLDLLRLALELLLERLPPTHSLRSRVTQELWMAMLGNPQPLGTLVKPIALTGTLQVRLLGCKDLLVAVPGRSPMAVLAGSPSESWLRTRSRQQRGGGELASEVLAVLKVDNRVVGQTGWGLVAEKSWDQSFIISLDRARELEIGVHWRDWRQLCGVAFLKLEDFLDNACHQLSLSLVPQGRLFAQVTFCEPVIERRPRLQRQRCIFSKRRGRDFMRASQMNLSMAAWGRLVMSLLPPCSSPNTASPPKGRPSTAVCGTPSAASPSNFLPMKTLSKEDTKPPPKPPRLYLQEPAPGTPCTKRPHMDPRPAVVPALAALSTRKPPRLQDFRCLAVLGRGHFGKVLLVQYKGTGKYYAIKALKKQEVLGRDEIDSLYCEKRILETVGRTGHPFLLSLLACLQTSSHACFVTEFLPGGDLMAQIHEDVFPEPQACFYLACVVLGLQFLHEKRIIYRDLKLDNLLLDAQGFLKIADFGLCKEGIGFGDRTSTFCGTPEFLAPEVLTQEAYTRAVDWWGLGVLLYEMLVGECPFPGDTEEEVFECIVSADVPCPHFLSVQGLELIQKLLQKSPEKRLGAGERDAEEIKVQPFFRTTNWQALLARTVQPPFVPTLCGPADLRYFEGEFTSLPPTLTPPVSQSSLTARQQAAFRDFDFVSEQFLES
chain 2: MNHLNVLAKALYDNVAESPDELSFRKGDIMTVLEQDTQGLDGWWLCSLHGRQGIVPGNRLKILVGMYDKKPAGPGPGPPATPAQPQPGLHAPAPPASQYTPMLPNTYQPQPDSVYLVPTPSKAQQGLYQVPGPSPQFQSPPAKQTSTFSKQTPHHPFPSPATDLYQVPPGPGGPAQDIYQVPPSAGMGHDIYQVPPSMDTRSWEGTKPPAKVVVPTRVGQGYVYEAAQPEQDEYDIPRHLLAPGPQDIYDVPPVRGLLPSQYGQEVYDTPPMAVKGPNGRDPLLEVYDVPPSVEKGLPPSNHHAVYDVPPSVSKDVPDGPLLREETYDVPPAFAKAKPFDPARTPLVLAAPPPDSPPAEDVYDVPPPAPDLYDVPPGLRRPGPGTLYDVPRERVLPPEVADGGVVDSGVYAVPPPAEREAPAEGKRLSASSTGSTRSSQSASSLEVAGPGREPLELEVAVEALARLQQGVSATVAHLLDLAGSAGATGSWRSPSEPQEPLVQDLQAAVAAVQSAVHELLEFARSAVGNAAHTSDRALHAKLSRQLQKMEDVHQTLVAHGQALDAGRGGSGATLEDLDRLVACSRAVPEDAKQLASFLHGNASLLFRRTKATAPGPEGGGTLHPNPTDKTSSIQSRPLPSPPKFTSQDSPDGQYENSEGGWMEDYDYVHLQGKEEFEKTQKELLEKGSITRQGKSQLELQQLKQFERLEQEVSRPIDHDLANWTPAQPLAPGRTGGLGPSDRQLLLFYLEQCEANLTTLTNAVDAFFTAVATNQPPKIFVAHSKFVILSAHKLVFIGDTLSRQAKAADVRSQVTHYSNLLCDLLRGIVATTKAAALQYPSPSAAQDMVERVKELGHSTQQFRRVLGQLAAA

In the assay the parent is B1. Kind of assay: co-immunoprecipitation (IP anti-Flag sepharose, IB anti-p130Cas); MDA-MB-231 cells, transient transfection; parent: 1.
For chain 1 P501A, chain 1 K503S, chain 1 P504A, the ratio to parent came to 0.2.

For the variant chain 1 K577E, the ratio to parent came out at 0.8.
